Earlier results on one substance are cited in paper PMC5512170.

The target in this series is SNX27 PDZ (Homo sapiens) (UniProt Q96L92). In words: fluorescence polarization. In general terms: Polarisation of emitted light reports the rotation of a fluorescent probe.

The Kd is the constant that tells how readily two partners part at equilibrium. For the substance ß2-AR tail C-tail (from UniProt P07550), the Kd is 17 µM.
